Earlier results on one substance are cited in paper PMC9805914.

In this data set the target is SARS-CoV-2 spike RGD motif RGD motif (Severe acute respiratory syndrome coronavirus 2) (UniProt P0DTC2).

integrin αvβ8 (from UniProt P06756): the Kd – broadly, the free concentration of one partner at which half of the binding sites on the other are occupied at equilibrium, for simple one-to-one binding – is 4 nM.
